Data from paper PMC5095700.

Test system: N[C@@H]1[C@@H](O)[C@H](O)[C@@H](CO)O[C@H]1O
Assay: steady-state kinetics of purified variant
Format: biochemical, Clostridium acetobutylicum
Conditions: acetyl CoA

Substance	Km	kcat
Glucosamine/glucosaminide N-acetyltransferase (GlmA) (Clostridium acetobutylicum ATCC 824; Y297F)	7.1 ± 0.5 mM	1.3 ± 0.06 s⁻¹
Glucosamine/glucosaminide N-acetyltransferase (GlmA) (Clostridium acetobutylicum ATCC 824; D287N)	11.8 ± 0.5 mM	1.05 ± 0.03 s⁻¹
